Read-outs that look alike come from different tables or passages of the source.

Experiment [1] deals with pFd-protAHis (preferredoxin fused to Staphylococcal protein A, COOH-terminal hexahistidine tag). Briefly: pull-down.
Experiment [2] has the same target. Briefly: pull-down. The source holds these as a separate data set.

For the substance “[35S]atToc159 (in vitro-translated soluble atToc159) (from UniProt O81283 1-1503) (receptor)”, the percent reduction of binding against GTP in experiment [1] and in experiment [2] was 20% throughout.
For the substance “[35S]atToc159-K868R (from UniProt O81283 1-1503) (receptor)”, the percent less binding than wild-type atToc159 in experiment [2] turned out to be 60%.
With “[35S]atToc159G (in vitro-translated G domain of atToc159) (domain or fragment)”, in experiment [2], the fold higher binding than to Fd-protAHis was 3 fold.

The record behind these values is paper PMC2172197.
